Experimental findings from patent US12214014B2, “Methods for scar reduction by converting scar fibroblasts into adipocytes with hair follicle-derived signals” (The Trustees of the University of Pennsylvania, priority 2017, dated 2025) are described below.

Entries after “also recorded” stand apart in the source; their conditions may differ.

In experiment [1] the test system is Zfp423. Kind of experiment: Zfp423 reporter (lacZ) activity in wounds of Zfp423-lacZ mice. It is filed as in vivo, mouse. Conditions: 2 mg/kg during wound healing, day 21. On the procedure: FIG. 25: BMP signaling is necessary for Zfp423 reporter activation in wounds. […] Asterisk marks lacZ-positive dermal papillae of new hair follicles. Size bars: 100 μm.
(§1) All animal experiments were carried out in accordance to with the guidelines of the IACUC of the University of Pennsylvania and the University of California, Irvine. Full thickness 1.5×1.5 cm (2.25 cm^2) excisional wounds were inflicted on the backs of three to eight week-old mice as described in M. Ito et al., Nature 447:316 (2007).

Experiment [2] concerns regenerated adipocytes in wounds. Kind of experiment: Adipocyte regeneration in large excisional skin wounds (adipocyte/hair follicle index, Oil Red O). The experiment is classed as in vivo, mouse. The following applies: for Adipocyte/hair index (new adipocyte/follicle ratio): WT mice treated during wound healing, post-wounding Day 28; for regeneration of new adipocytes in hair-bearing wounds: treatment during wound healing (2 mg/kg), hair follicles regenerate normally. Here is the method:
as §1
Whole mount wounds were stained for Oil Red O and the number of regenerated hair follicles was counted from the skin surface, where each new hair is clearly visible. The number of new adipocytes was counted from the underside, where each adipocyte is clearly visible due to their very large size and prominent marking by Oil Red O dye. For each experiment, adipose tissue regeneration was quantified as the ratio of all new adipocytes/all new hair follicles (aka adipocyte/hair follicle index). Some wound samples (FIG. 2B) were stained for lacZ and photographed, then additionally stained for Oil Red O and photographed again. Adipocytes were then micro-dissected and photographed under stereomicroscope.

In experiment [3] the test system is mouse dermal cells isolated from day 15 wounds. Kind of experiment: Primary mouse adipogenic cell culture. It is filed as cell-based. The following applies: 6 ng/ml hBMP4 or 25 ng/ml hBMP2 with differentiation media. On the procedure: Primary scar cells were isolated from day 15 wounds as described in D. Gay et al., Nature medicine 19:916 (2013) with minor modifications. Single cell fractions were created and cultured to confluence in high-glucose to DMEM (Gibco) supplemented with 10% FBS (Atlanta Biologicals) and […] Pen/Strep cocktail (Gibco). […] After three days, cells differentiation media was switched to adipocyte maintenance media (Cell Solutions). Cells were cultured in a water-jacketed incubator at 37° C. with 5% CO2 output
(§2) Total RNA was isolated using Trizol reagent (Thermo) or RNEasy Micro-Kit (Qiagen) as per manufacturer's protocol with minor modifications. Total RNA was reverse-transcribed and cDNA was amplified using PCR primers described in J. Ishibashi et al., Mol Cell Biol 32:2289 (2012). See Tables 3 and 4 for the sequences of primers used.

The subject of experiment [4] is human hypertrophic scar fibroblasts. Kind of experiment: Primary human adipogenic cell culture, hypertrophic scar fibroblasts. It is filed as cell-based. The following applies: n=3. On the procedure:
(§3) All human experiments were carried out in accordance with the guidelines of the IRB of the University of California, Irvine, Children's Hospital Los Angeles and Kyungpook National University. Keloid fibroblasts were isolated as described in Y. S. Lee et al., Wound repair and regeneration: official publication of the Wound Healing Society [and] the European Tissue Repair Society 24:302 (2016). Human hypertrophic scar myofibroblasts were derived from clinical specimen biopsies and expanded in vitro as described in M. Vangipuram et al., Journal of visualized experiments: JoVE, e3779 (2013).
Primary human scar cells were cultured in DMEM/F12 media (Gibco) supplemented with 10% FBS (Fisher Scientific). Upon confluency, cells were switched to serum free DMEM/F12 media and treated with 20 ng/ml recombinant hBMP4 protein (R&D Systems) for 48 hours before differentiation. For the hair follicle co-culture, cells were grown in 12-well trans-well plates. Once near confluency, medium was changed to William's E hair follicle organ culture medium, and 40 microdissected human scalp anagen hair follicles were co-cultured on top of the membrane insert in each well for 5 days. Control cells were cultured in William's E medium without hair follicles. […]

Experiment [5] relates to human keloid scar cells. The experiment is described as follows: Primary human adipogenic cell culture, keloid scar cells. The experiment is classed as cell-based. The following applies: 20 ng/ml hBMP4 for 48 hours, then adipogenic cocktail; for adipogenic conversion of keloid scar cells (Oil Red O positive adipocytes): n=3. On the procedure:
as §3
Primary human scar cells were cultured in DMEM/F12 media (Gibco) supplemented with 10% FBS (Fisher Scientific). Upon confluency, cells were switched to serum free DMEM/F12 media and treated with 20 ng/ml recombinant hBMP4 protein (R&D Systems) for 48 hours before differentiation. For the hair follicle co-culture, cells were grown in 12-well trans-well plates. Once near confluency, medium was changed to William's E hair follicle organ culture medium, and 40 microdissected human scalp anagen hair follicles were co-cultured on top of the membrane insert in each well for 5 days. Control cells were cultured in William's E medium without hair follicles. In all cases, adipogenic differentiation was induced by adding adipogenic cocktail: DMEM/F12 media supplemented with 1% ITS premix (insulin-transferrin-selenium; BD Biosciences), 0.5 mM isobutylmethylxanthine (Sigma), 0.1 μM cortisol (Sigma), 1 μM dexamethasome (Sigma), 0.2 nM triiodothyronine (Sigma), and 1 μM rosiglitazone (Cayman Chemical). After 4 days of induction, cells were changed to maintenance media: DMEM/F12 media supplemented with 1% ITS premix (BD Biosciences), 0.1 μM cortisol (Sigma), and 0.2 nM triiodothyronine (Sigma). For the hair follicle co-culture, cells were maintained in the induction media for 7 days. Lipid droplets were visualized after 7 days and cells were harvested for RNA isolation on day 10.
as §2

Setting [6] is: listed as small-molecule inhibitor of SMAD1/5/8 phosphorylation.

Regarding `c1ccc2c(-c3cnn4cc(-c5ccc(N6CCNCC6)cc5)cnc34)ccnc2c1` [LDN-193189], the “Zfp423 activity (reporter) in dermal cells surrounding new hair follicles and in blood vessels” value in experiment [1] is listed as “significantly downregulated”; in experiment [1] (setting [6]) it was “downregulated”. The “Adipocyte/hair index (new adipocyte/follicle ratio)” value in experiment [2] is given as 0.58 ± 0.35; in experiment [2] (setting [6]), 0.58+/−0.35. Also, the “regeneration of new adipocytes in hair-bearing wounds” value in experiment [2] is “near complete loss of regenerated adipocytes”; in experiment [2] (setting [6]), “largely prevented new adipocyte regeneration”.

B1: BMP4: human recombinant bone morphogenetic protein 4 (R&D Systems) (protein, UniProt P12644 293-408, looked up)
Bone morphogenetic protein 4: SPKHHSQRARKKNKNCRRHSLYVDFSDVGWNDWIVAPPGYQAFYCHGDCPFPLADHLNSTNHAIVQTLVNSVNSSIPKACCVPTELSAISMLYLDEYDKVVLKNYQEMVVEGCGCR
Turning to B1, the “activation of adipocyte-specific genes (qRT-PCR)” value in experiment [3] is “activation of adipocyte-specific genes”. In experiment [3] (without BMP non-adipogenic), the “reprogramming of cultured mouse dermal cells into adipocytes” value was “induced their reprogramming into adipocytes”. Moreover, the “qRT-PCR against select adipogenic genes” value in experiment [4] (following hBMP4 treatment) is “only ADIPISIN becomes significantly upregulated”. The “adipogenic potential of hypertrophic scar fibroblasts (Oil Red O)” value in experiment [4] (hBMP4 for 48 hours prior to differentiation, vs non-hBMP4 control) was “does not induce an increase in adipogenic potential”. Besides, in experiment [5], the “expression of adipogenic genes ZNF423, ADIPOQ, ADIPOSIN, PPARG2, FABP4 (qRT-PCR)” value is “expression of adipocyte markers; also recorded: activation of adipocyte-specific genes” and the “adipogenic conversion of keloid scar cells (Oil Red O positive adipocytes)” value was “induced their conversion to lipid-laden adipocytes; also recorded: induced their reprogramming into adipocytes”. Further, in experiment [5] (listed as hBMP4), the “expression of adipogenic genes ZNF423, ADIPOQ, ADIPOSIN, PPARG2, FABP4 (qRT-PCR)” value is “upregulation of adipogenic genes” and the “adipogenic conversion of keloid scar cells (Oil Red O positive adipocytes)” value was “consistently induced adipogenic conversion”.
